Experimental data published in US11607466B2, “Tumor and immune cell imaging based on PD-L1 expression” (The Johns Hopkins University, priority 2016, dated 2023).

Tests used:
PD-L1 in hPD-L1 cells = target: T1, PD-L1 in hPD-L1 cells (Homo sapiens, UniProt Q9NZQ7); test: In vitro binding of [64Cu]WL12 to hPD-L1 and CHO cells; assay type: cell-based; conditions: compared with WL12
T1 construct: expressed in transfected cells; grown as tumours in NSG mice for the in vivo units
Protocol: 1.4.9. […] After incubation, cells were washed three times with cold PBS prior to counting on an automated gamma counter (1282 Compugamma CS, Pharmacia/LKBNuclear, Inc., Gaithersburg, Md.). […] Mean fluorescence intensity values were correlated with % incubated dose (% ID) uptake. All the cell uptake studies were performed in triplicate for each cell line and repeated three times.

[1] = target: T2, PD-L1 in A549-iPDL1 tumors (Homo sapiens, UniProt Q9NZQ7); test: [64Cu]WL12 PET and biodistribution in A549-iPDL1 and A549 xenografts; assay type: in vivo; conditions: AtzMab 20 mg/kg
T2 construct: expressed in transfected cells; host or cells: A549 NSCLC cells, lentiviral pINDUCER20, G418-selected, doxycycline-induced; as xenografts for the in vivo unit
T2 sequence (Q9NZQ7 19-290): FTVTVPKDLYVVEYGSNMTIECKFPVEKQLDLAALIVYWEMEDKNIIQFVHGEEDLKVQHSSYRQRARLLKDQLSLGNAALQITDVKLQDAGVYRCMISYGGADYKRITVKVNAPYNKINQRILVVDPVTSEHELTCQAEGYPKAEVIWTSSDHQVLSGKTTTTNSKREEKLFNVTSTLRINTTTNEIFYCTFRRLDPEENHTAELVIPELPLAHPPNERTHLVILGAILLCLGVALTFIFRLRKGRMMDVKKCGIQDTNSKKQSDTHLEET
Source text: To do so, an A549 NSCLC cell line with doxycycline-inducible PD-L1 expression (A549-iPD-L1) was generated. A549 is a Kras G12S lung adenocarcinoma cell line that expresses low PD-L1 at baseline. It has been transduced with PD-L1 in the all-in-one lentivirus pINDUCER20 vector (Meerbrey, et al., 2011), selected with G418, confirmed for PD-L1 induction by flow cytometry (FIG. 37A) and used for in vitro and in vivo studies. Cy5-PD-L1-mAbs binding to doxycycline-treated A549-iPDL1 cells was blocked by WL12 validating the specificity of WL12 (FIG. 37B). […] Accordingly, it is expected that PET will play a key role in quantifying dynamic changes in PD-L1 expression within the standard clinical work flow, providing a novel way to inform therapy decisions.

[2] = Stroh, et al., 2017; cited from earlier work

T1 sequence (Q9NZQ7 19-290): as above

For “AtzMab: therapeutic PD-L1 antibody Atezolizumab”, which “potency at inhibiting [64Cu]WL12 binding” value (PD-L1 in hPD-L1 cells) is on record?
Its value is “more potent than WL12”.

And the “decrease of [64Cu]WL12 uptake in A549-iPDL1 tumors” value [1]?
The value was over 75%.

What about the linearity of pharmacokinetics [2] of the same substance?
The linearity of pharmacokinetics was “non-linear PK below 0.6-1 mg/kg and linear PK above 1 mg/kg dose”.
